Target: the molecule itself
Test: TIRF microscopy, tracer residence time; GFP-tagged and unlabelled versions of the same mutant Dam1 complex mixed 1:100 to 2 nM in all (20 pM tracer), on immobilised MTs; BRB80, 0.8 mg/ml kappa-casein, 50 mM KCl, oxygen scavengers; concentrations that support oligomeric rings

| Protein | fold increase of the average residence time on MTs against single molecules [fold] | binding result |
| --- | --- | --- |
| Dam1-GFP NP complex, mock-treated (Dam1p S257A, S265A, S292A, Ask1p S200A, Spc34p T199A) (complex, yeast, GFP-tagged complex, detected by its GFP; In the tracer assay 20 pM of this complex met 2 nM of the same mutant complex without GFP; also called Dam1 NP mock; Dam1 NP; source: recombinant Dam1 complex (E. coli BL21 Rosetta, purified); mock-treated with GST-Ipl1 and GST-Sli15 (554-698), distilled water in place of ATP; copies: + + + + + + + + +) chain 1: MDSASKEETLEKLDQEITVNLQKIDSNLSFCFHKITQDIIPHVATYSEICERIMDSTEWLGTMFQETGLVNLQANAAAPVGNAPVKSLVSNNVGIFPTSAEEASRQSQTDNGPNEADSAVHVNRDVHSMFNNDSIDDFHTANITSTGQILKLPDSSDEDTGSEAVPSREQTDLTGEGHGGADDEQDESTIQRQSRKRKIALLLQQQYGSSSSMVPSPIVPNKMRKQLAHEEHINNDGDNDDENSNNIESSPLKQGHHHPKGQADDNNEGPDEEESTKEVPKPGTIIHFSTNR chain 2: MMASTSNDEEKLISTTDKYFIEQRNIVLQEINETMNSILNGLNGLNISLESSIAVGREFQSVSDLWKTLYDGLESLSDEAPIDEQPTLSQSKTK chain 3: MDSIDEQIAIKRKELQSLQKITSLTDGLKIQLTELNEQIKEMGMNADSVAQLMNNWDSIINNISQASLGLLQYAEGDYEIGPWKDSKKKESEQSNETGLEAQENDKNDEDNDEDEDLVPLPETMVRIRVDGNE chain 4: MEHNLSPLQQEVLDKYKQLSLDLKALDETIKELNYSQHRQQHSQQETVSPDEILQEMRDIEVKIGLVGTLLKGSVYSLILQRKQEQESLGSNSK chain 5: MENPHEQVQANILSRIIGNVKRLNESVAILNQELVTINNRNKNLEIMGAICDNYHSSVQFNLEATNNKKPPL chain 6: MSEDKAKLGTTRSATEYRLSIGSAPTSRRSSMGESSSLMKFADQEGLTSSVGEYNENTIQQLLLPKIRELSDSIITLDSNFTRLNFIHESLADLNESLGSLLYGIMSNSWCVEFSQAPHDIQDDLIAIKQLKSLEDEKNNLVMELSNMERGIKRKKDEQGENDLAKASQNKQFNQPLFPSSQVRKYRSYDNRDKRKPSKIGNNLQVENEEDYEDDTSSEASFVLNPTNIGMSKSSQGHVTKTTRLNNNTNSKLRRKAILHTIRNAIASGADLPIENDNVVNLGDLHPNNRIALGSGAARVVNGPVTKNRNSMFSGRAERKPTESRHSVAKKTEKKINTRPPFR chain 7: MSEQSQLDDSTIDKLIPQIFNEMRSNLNNTTNKFPKSTGGGASDNISANSNSIRSFNSITTQSLLKESESLDKITAMIKNVTAALKNNLPVYVNQVHEVCKSTNSILDSWINIHSQAGYIHKLMSDQTYLKLINDRLHNENVNTNDEDGSTLHNVIALKKKEILDLRQKLENRKGEKDAAPAKPPNQGLNPRYGVQSGRRPVPSAGISNNGRVRKTHVPASKRPSGIPRVTNRWTKPTASSSRKMFR chain 8: MNANKQRQYNQLAHELRELQTNLQETTKQLDIMSKQCNENLVGQLGKVHGSWLIGSYIYYMEQMLGKTQ chain 9: MTDALEQSVLALEGTVSVLKDSVESLKCANEPSTNLASTMLQTKRVFRLVPEYDVERSKLDLIEEVEPLVRTLGDKLRKSMGRMQRELDTLQQTYELNDLRLKKNISMDDDDALNSPDMGQEYEGRDADDVVMMASSTNEELEELKKLKEKKKQLENKLEILKQK chain 10: MGESLDRCIDDINRAVDSMSTLYFKPPGIFHNAILQGASNKASIRKDITRLIKDCNHDEAYLLFKVNPEKQSVSRRDGKEGVFDYVIKRDTDMKRNRRLGRPGEKPIIHVPKEVYLNKDRLDLNNKRRRTATTSGGGLNGFIFDTDLIGSSVISNSSSGTFKALSAVFKDDPQIQRLLYALENGSVLMEEESNNQRRKAIFVEDFPTDLILKVMAEVTDLWPLTEFKQDYDQLYHNYEQLSSKLRFIKKEVLLQDDRLKTMSQYHPSSSHDVAKIIRKEKDEIRRLEMEIANLQE | > 5 |  |
| Dam1-GFP CP complex, phosphorylated by Ipl1 (Dam1p S20A, Ask1p S200A, Spc34p T199A; Dam1p C-terminal sites phosphorylated) (complex, yeast, phosphoserine at S257, S265 and S292 (by Ipl1 kinase, nearly stoichiometric), GFP-tagged complex, detected by its GFP; In the tracer assay 20 pM of this complex met 2 nM of the same phosphorylated mutant complex without GFP; also called Dam1 CP phos; Dam1 CP; source: recombinant Dam1 complex (E. coli BL21 Rosetta, purified); phosphorylated with GST-Ipl1, GST-Sli15 (554-698) and 10 mM ATP, 90 min, 30 °C; copies: + + + + + + + + +) chain 1: MDSASKEETLEKLDQEITVNLQKIDSNLSFCFHKITQDIIPHVATYSEICERIMDSTEWLGTMFQETGLVNLQANAAAPVGNAPVKSLVSNNVGIFPTSAEEASRQSQTDNGPNEADSAVHVNRDVHSMFNNDSIDDFHTANITSTGQILKLPDSSDEDTGSEAVPSREQTDLTGEGHGGADDEQDESTIQRQSRKRKIALLLQQQYGSSSSMVPSPIVPNKMRKQLAHEEHINNDGDNDDENSNNIESSPLKQGHHHPKGQADDNNEGPDEEESTKEVPKPGTIIHFSTNR chain 2: MMASTSNDEEKLISTTDKYFIEQRNIVLQEINETMNSILNGLNGLNISLESSIAVGREFQSVSDLWKTLYDGLESLSDEAPIDEQPTLSQSKTK chain 3: MDSIDEQIAIKRKELQSLQKITSLTDGLKIQLTELNEQIKEMGMNADSVAQLMNNWDSIINNISQASLGLLQYAEGDYEIGPWKDSKKKESEQSNETGLEAQENDKNDEDNDEDEDLVPLPETMVRIRVDGNE chain 4: MEHNLSPLQQEVLDKYKQLSLDLKALDETIKELNYSQHRQQHSQQETVSPDEILQEMRDIEVKIGLVGTLLKGSVYSLILQRKQEQESLGSNSK chain 5: MENPHEQVQANILSRIIGNVKRLNESVAILNQELVTINNRNKNLEIMGAICDNYHSSVQFNLEATNNKKPPL chain 6: MSEDKAKLGTTRSATEYRLAIGSAPTSRRSSMGESSSLMKFADQEGLTSSVGEYNENTIQQLLLPKIRELSDSIITLDSNFTRLNFIHESLADLNESLGSLLYGIMSNSWCVEFSQAPHDIQDDLIAIKQLKSLEDEKNNLVMELSNMERGIKRKKDEQGENDLAKASQNKQFNQPLFPSSQVRKYRSYDNRDKRKPSKIGNNLQVENEEDYEDDTSSEASFVLNPTNIGMSKSSQGHVTKTTRLNNNTNSKLRRKSILHTIRNSIASGADLPIENDNVVNLGDLHPNNRISLGSGAARVVNGPVTKNRNSMFSGRAERKPTESRHSVAKKTEKKINTRPPFR chain 7: MSEQSQLDDSTIDKLIPQIFNEMRSNLNNTTNKFPKSTGGGASDNISANSNSIRSFNSITTQSLLKESESLDKITAMIKNVTAALKNNLPVYVNQVHEVCKSTNSILDSWINIHSQAGYIHKLMSDQTYLKLINDRLHNENVNTNDEDGSTLHNVIALKKKEILDLRQKLENRKGEKDAAPAKPPNQGLNPRYGVQSGRRPVPSAGISNNGRVRKTHVPASKRPSGIPRVTNRWTKPTASSSRKMFR chain 8: MNANKQRQYNQLAHELRELQTNLQETTKQLDIMSKQCNENLVGQLGKVHGSWLIGSYIYYMEQMLGKTQ chain 9: MTDALEQSVLALEGTVSVLKDSVESLKCANEPSTNLASTMLQTKRVFRLVPEYDVERSKLDLIEEVEPLVRTLGDKLRKSMGRMQRELDTLQQTYELNDLRLKKNISMDDDDALNSPDMGQEYEGRDADDVVMMASSTNEELEELKKLKEKKKQLENKLEILKQK chain 10: MGESLDRCIDDINRAVDSMSTLYFKPPGIFHNAILQGASNKASIRKDITRLIKDCNHDEAYLLFKVNPEKQSVSRRDGKEGVFDYVIKRDTDMKRNRRLGRPGEKPIIHVPKEVYLNKDRLDLNNKRRRTATTSGGGLNGFIFDTDLIGSSVISNSSSGTFKALSAVFKDDPQIQRLLYALENGSVLMEEESNNQRRKAIFVEDFPTDLILKVMAEVTDLWPLTEFKQDYDQLYHNYEQLSSKLRFIKKEVLLQDDRLKTMSQYHPSSSHDVAKIIRKEKDEIRRLEMEIANLQE |  | binds |
| Dam1-GFP CP complex, mock-treated (Dam1p S20A, Ask1p S200A, Spc34p T199A) (complex, yeast, GFP-tagged complex, detected by its GFP; In the tracer assay 20 pM of this complex met 2 nM of the same mutant complex without GFP; also called Dam1 CP mock; Dam1 CP; source: recombinant Dam1 complex (E. coli BL21 Rosetta, purified); mock-treated with GST-Ipl1 and GST-Sli15 (554-698), distilled water in place of ATP; copies: + + + + + + + + +) chain 1: MDSASKEETLEKLDQEITVNLQKIDSNLSFCFHKITQDIIPHVATYSEICERIMDSTEWLGTMFQETGLVNLQANAAAPVGNAPVKSLVSNNVGIFPTSAEEASRQSQTDNGPNEADSAVHVNRDVHSMFNNDSIDDFHTANITSTGQILKLPDSSDEDTGSEAVPSREQTDLTGEGHGGADDEQDESTIQRQSRKRKIALLLQQQYGSSSSMVPSPIVPNKMRKQLAHEEHINNDGDNDDENSNNIESSPLKQGHHHPKGQADDNNEGPDEEESTKEVPKPGTIIHFSTNR chain 2: MMASTSNDEEKLISTTDKYFIEQRNIVLQEINETMNSILNGLNGLNISLESSIAVGREFQSVSDLWKTLYDGLESLSDEAPIDEQPTLSQSKTK chain 3: MDSIDEQIAIKRKELQSLQKITSLTDGLKIQLTELNEQIKEMGMNADSVAQLMNNWDSIINNISQASLGLLQYAEGDYEIGPWKDSKKKESEQSNETGLEAQENDKNDEDNDEDEDLVPLPETMVRIRVDGNE chain 4: MEHNLSPLQQEVLDKYKQLSLDLKALDETIKELNYSQHRQQHSQQETVSPDEILQEMRDIEVKIGLVGTLLKGSVYSLILQRKQEQESLGSNSK chain 5: MENPHEQVQANILSRIIGNVKRLNESVAILNQELVTINNRNKNLEIMGAICDNYHSSVQFNLEATNNKKPPL chain 6: MSEDKAKLGTTRSATEYRLAIGSAPTSRRSSMGESSSLMKFADQEGLTSSVGEYNENTIQQLLLPKIRELSDSIITLDSNFTRLNFIHESLADLNESLGSLLYGIMSNSWCVEFSQAPHDIQDDLIAIKQLKSLEDEKNNLVMELSNMERGIKRKKDEQGENDLAKASQNKQFNQPLFPSSQVRKYRSYDNRDKRKPSKIGNNLQVENEEDYEDDTSSEASFVLNPTNIGMSKSSQGHVTKTTRLNNNTNSKLRRKSILHTIRNSIASGADLPIENDNVVNLGDLHPNNRISLGSGAARVVNGPVTKNRNSMFSGRAERKPTESRHSVAKKTEKKINTRPPFR chain 7: MSEQSQLDDSTIDKLIPQIFNEMRSNLNNTTNKFPKSTGGGASDNISANSNSIRSFNSITTQSLLKESESLDKITAMIKNVTAALKNNLPVYVNQVHEVCKSTNSILDSWINIHSQAGYIHKLMSDQTYLKLINDRLHNENVNTNDEDGSTLHNVIALKKKEILDLRQKLENRKGEKDAAPAKPPNQGLNPRYGVQSGRRPVPSAGISNNGRVRKTHVPASKRPSGIPRVTNRWTKPTASSSRKMFR chain 8: MNANKQRQYNQLAHELRELQTNLQETTKQLDIMSKQCNENLVGQLGKVHGSWLIGSYIYYMEQMLGKTQ chain 9: MTDALEQSVLALEGTVSVLKDSVESLKCANEPSTNLASTMLQTKRVFRLVPEYDVERSKLDLIEEVEPLVRTLGDKLRKSMGRMQRELDTLQQTYELNDLRLKKNISMDDDDALNSPDMGQEYEGRDADDVVMMASSTNEELEELKKLKEKKKQLENKLEILKQK chain 10: MGESLDRCIDDINRAVDSMSTLYFKPPGIFHNAILQGASNKASIRKDITRLIKDCNHDEAYLLFKVNPEKQSVSRRDGKEGVFDYVIKRDTDMKRNRRLGRPGEKPIIHVPKEVYLNKDRLDLNNKRRRTATTSGGGLNGFIFDTDLIGSSVISNSSSGTFKALSAVFKDDPQIQRLLYALENGSVLMEEESNNQRRKAIFVEDFPTDLILKVMAEVTDLWPLTEFKQDYDQLYHNYEQLSSKLRFIKKEVLLQDDRLKTMSQYHPSSSHDVAKIIRKEKDEIRRLEMEIANLQE | > 5 |  |

Source: PMC4660060, “The molecular architecture of the Dam1 kinetochore complex is defined by cross-linking based structural modelling” (Nature Communications, 2015)
